The data set in a line: soluble on expression in E. coli; label from the status in PepcDB or PDB records.
In the case of “MLKSIELNSHIRNRLAEYLKGRGMDFQTAMQEEKGNKEIAAIVHSGLPTLVRKLYSEQKMQKFFWEKRDLIADYISRRMQG”, the “soluble on expression in E. coli” value is recorded as “not soluble”.
The same measure for “MLKTISPLISPELLKVLAEMGHGDEIIFSDAHFPAHSMGPQVIRADGLLVSDLLQAIIPLFELDSYAPPLVMMAAVEGDTLDPEVERRYRNALSLQAPCPDIIRINRFAFYERAQKAFAIVITGERAKYGNILLKKGVTP”: “soluble”; for “MLLAFKAKIALAALAGFVTPLAVTPLVIDHGDAALDGQQAMVEIAPGAMDYRLPGEFTRDGRQIEAPRTKLQFDRPLSIMLHQVSAADYQRCVDDGACHPMPAATAVRADRPAVQVSWQDATTYADWLSRKTGAHYRLPTDAEWAFAAGSKFKDDGLALDSDDPSVRWIARYERESDRDNLSAALRSFGGFGANERGLLDLSGNVWEWTTTCFDRSAIDAAGRPQAQTANCGVRVAEGLHRAYVSDFIRDAKAGGCSAGLPPIHLGFRLVREPAAPLARLRGQLDRVVTAAGILEHHHHHH”: “not soluble”; for “MLLDKIQNLIIQSDISIFQSMKKMDEEKVKLLFVFRGDCFVGILTIGDIQRAIIKQNDTSMQINNILDQNKVFAYKGESLEIIKNKMIHLRAECMPILDSKGELVDVLFWKDLFIDEVRVDDRKIDLPVVIMAGGKGTRLKPLTNVIPKPLIPIGDKTILEAILDQFESIGCSKFYMSVNYKYDILKFYLAQLDHKYDIRFFKEDKPLGTIGSVSLLKDKISTPFFVSNCDIIIDQDYRDVYDYHINNSNDLTIVTAVKRTRIPYGVIETIENGLMTELIEKPEFTYMINSGVYILQPELINEIPENELFHITHLMEKVKSRGGKIGCFPVSEKSWTDIGEWNEYLKLLGILEHHHHHH”: “not soluble”.
With “MLLDVQRGQLSFTKYSIITVIWLSLSRILNRGQLSLECFEFWQPTSQLLVLDVCLLDAFALEHHHHHH” the entry was “not soluble”.
As for “MLLPEPTTLRHVLIDGTIPQVATDEALIKDFGHPYEYAFNRTPQGYQVRWNTPKGVYILDAVVAAHIDPDDQWYWHQQFAFAIPELAEGPHHSSEELLTAARTLNGNGPAYLVPTEDGHTDVIVATPSFPQLPLAHALTLGLGQARNNNLTDDEIRRAIIAFAAQNDYSVAEDGLILCVRSDNGEQAHVDIARLKVRDLQSTTPQLRLTDVLADATFVAAEHQLLLNGRFPDARATTNDDCSVVTLTTPTGQTLRARALLIATLRGETLQWSWADPAVCDLPGAKAALGVKNFAIDNGLGMLLGQVDAATALSQRLYDAAKPVSRFWTDVRVPLSDGSTAIMLVDASELRLPPPSHAAVFATLHETVPHGRDIRRALSYYGAFRRITIDDVDYRRVRVHAPSAPIQVSMDACGRVCSIV”, the “soluble on expression in E. coli” value is “not soluble”.
Turning to “MLLSNEEFLKKLTDLLQTHQSKGTGSVYLSQKCNPVDEGEGSSASVLIRAKSGAAEKISTVVELDYFTDFFQSYAEVCKGQIVGLKKRDRK”, the “soluble on expression in E. coli” value is given as “soluble”.
With “MLMRPLDLTEKRGKKVTIYFEGKELEAYEGEKLPVALLANEIYWLTTSNEGRKRGAFTFGPVPMTVNGVKGLEARRIKVKDGMKIERQGYYDFHEEPVVEPGEIERVVVDVAIIGGGPAGIGAALELQQYLTVALIEERGWLGGDMWLKGIKQEGFNKDSRKVVEELVGKLNENTKIYLETSALGVFDKGEYFLVPVVRGDKLIEILAKRVVLATGAIDSTMLFENNDMPGVFRRDFALEVMNVWEVAPGRKVAVTGSKADEVIQELERWGIDYVHIPNVKRVEGNEKVERVIDMNNHEYKVDALIFADGRRPDINPITQAGGKLRFRRGYYSPVLDEYHRIKDGIYVAGSAVSIKPHYANYLEGKLVGAYILKEFGYDAQPCIYEEKLREYEPESLSIPRIPLDKFNLEDVQICGCDVSLKKVDEVIRKGITDLQIIKRLTHLAMGFCQGRYCLFNGAVVVSQRTGKKLSEIDLPVARSPIKNVKMGILARR” the entry was “soluble”; with “MLNGSCLCGRVAYTVDGPLADVVNCHCAMCRKAHGAAFRTRATVRAEHFAFVRGESDITWYSSSPGNYRGFCSACGTPLLSRFDQTPDVYALPLGALDDDPGVKAACHVYVAHKAPWHDITDDLPRHPEGRPG”, “not soluble”.
Consider “MLPHSGRMVLIDRITRYGDDFVEAGAQVKPDHILLAGGMLPYTAFIELMAQAVGAYAGIQARKNARPVRLGFLPGTRKLEIFAQSVPVGTHLPATAHMSIQDAGVWACPTANCVGRMRRKLRPEHSFQTAFWHAPHSTCTAPNTMTEQLTPSEQAHIRRTTMTETVLITGSNRGIGKAAALEHHHHHH”, for which the “soluble on expression in E. coli” value was “not soluble”.
As to “MLPKANRIPYAMTVHGDTRIDNYYWLRDDTRSQPEVLDYLHQENEYGRKVMTSQQALQDRILKEIIDRIPPREVSAPYVKNGYRYRYIYEPGCEYAIYQRQSALSEEWDVWETLLDANQRAAHSEFYTLGGLAITPDNTIMALAEDYLSRRQYGLRFRNLESGNWYPELLDNVAPEFVWANDSLTLYYVRKHKKTLLPYQVWRHTIGTPSSQDELVYEEKDDTFYVSLHKTTSQHYVVIHLASATTSEVLLLDAELADAEPFSFLPRRKDHEYSLDHYQHKFYLRSNRNGKNFGLYRTRVRNENAWEELIPPREHIMLEGFTLFTDWLVVEERQRGLTSLRQINRKTREVIGIAFDDPAYVTWLAYNPEPETSRLRYGYSSMTTPDTLFELDMDTGERRVLKQTEVPGFDSGCYQSEHLWITARDGVEVPVSLVYHQKYFRKGQNPLLVYGYGSYGSSIDADFSSSRLSLLDRGFVYAIVHVRGGGELGQQWYEDGKFLKKRNTFNDYLDACDALLKLGYGSPSLCYGMGGSAGGMLMGVAINERPELFHGVIAQVPFVDVLTTMLDESIPLTTGEFEEWGNPQDIEYYDYMKSYSPYDNVKAQDYPHLLVTTGLHDSQVQYWEPAKWVAKLRELKTDQRLLLLCTDMDSGHGGKSGRFKSYEGVALEFAFLIGLAQGTLHSA”, the “soluble on expression in E. coli” value is “not soluble”.
With “MLPSAPAPLAHFLLFLHLIHSARPEDGVPIETIHAPMFEDVFDVRIHEGADKGSRLTMSQDLQKSTEPLGHCFGQLETDVDWIEWKSSRSAFYTTAQMPISATKNSNNLVGSLHLLCAGNQMHTFPFRVHITHRNHHPPTFSKNSFKFHVPTTLPIGSVITTLEVKDQDPVIYNSERRLAFTKDEPLVDILQDGTLKLKSDLSILTPYTPQRMQILAIDYGSPQLFTIANITLIPVTVSMVRELHVNVATEEYQIFEWEHPQYGTVDKYRLGIRRDDQVVYEEELEAAKTLALTKIMLSNSMNVSFQVTAIDENGETSSEWTQIGPIDRDVICKGECSRGGTPLCYVGAFNRVEQFIDARGAHCLCYPGFMGVSCETIGSMWTLTTLDVFVDLIRAMANKLNSIECSQIAI” the entry was “not soluble”; with “MLPSAQVARLKPDPFPPSLSPIPHGAVTFAALAPCHNLPIFSSRQMLRDSLTYSHTSPTMSPQIANRFEASLDAQDIARISLFTLESGVILRDVPVAYKSWGRMNVSRDNCVIVCHTLTSSAHVTSWWPTLFGQGRAFDTSRYFIICLNYLGSPFGSAGPCSPDPDAEGQRPYGAKFPRTTIRDDVRIHRQVLDRLGVRQIAAVVGASMGGMHTLEWAFFGPEYVRKIVPIATSCRQSGWCAAWFETQRQCIYDDPKYLDGEYDVDDQPVRGLETARKIANLTYKSKPAMDERFHMAPGVQAGRNISSQDAKKEINGTDSGNSHRAGQPIEAVSSYLRYQAQKFAASFDANCYIAMTLKFDTHDISRGRAGSIPEALAMITQPALIICARSDGLYSFDEHVEMGRSIPNSRLCVVDTNEGHDFFVMEADKVNDAVRGFLDQSLM”, “soluble”.
Regarding “MLQCGAKNVNPLERFVSSLPVAAVLPELLAALDGASQVLLSAPTGAGKSTWLPLQLLAHPGINGKIILLEPRRLAARNVAQRLAELLNEKPGDTVGYRMRAQNCVGPNTRLEVITEGVLTRMIQRDPELSGVGLVILDEFHERSLQADLALALLLDVQQGLRDDLKLLIMSA”, the “soluble on expression in E. coli” value is “not soluble”.
With “MLQGKAFLITGAGGALSRALIPAFHQAGARLFLSDPRPERMAERAQAVGAKTFVADLTRLEEALALARFVEEEAPLYGVVHTVGGFAAGRFLDTDPGLYDWMLDLNLRTTFNLLKAVLPYMAKRGEGFFAAFAAGPAWTGAGPGRALYTAAKTALASLLRSLQGEVEGVRFLVVYPMGTLDTEANRKAMPEADFSRWIAPELVAKVVVEAAGAKGGRLLELPIYPPL” the entry was “soluble”; with “MLQYRIIVDGRVQGVGFRYFVQMEADKRKLAGWVKNRDDGRVEILAEGPENALQSFVEAVKNGSPFSKVTDISVTESRSLEGHHRFSIVYS”, “soluble”.
With “MLRFYAMKQITEPGTYEIRGEVAEGDFSWDATNFAGFFYDVNDDVSTESLTVTGLNGGNVIPEGGLVYETTIQMVDYEYSKPSVGWDQFPVLGFFAEEYIPINADKADKLAKLVLDSDDKYTIRTGEQLDLGEGYAIEAKQVDVDGEKVWLEFTKDGEFVDDEIISVVSGSDNTWEVELDDIQDEDDVVVLRVHVNQVFQGAVDSIAQIEGIWLIDYANAMKIESDDEFGDLDNVKINGATLTITNEDTFTLTRDDEVEIGQGMFFKVADTAASDLRYYPFVEKTIDGEVVLEHHHHHH” the entry was “soluble”; with “MLRHNVPIRRDLDKIACDHGFDFHVIDNEIYWDESRAYRFTLRQIEEQIEKPTAELHQMCLEIVERAVRDEQSMQQLAIPPLYWDVIAESWRSRDPSLYGRMDFVWCGKDPVKLLEYNADTPTSLYESSYFQWLWLEDARRSGAIPRDADQYNAIQERLIARFSELYSREPLYFCCCEDTDEDRTTVLYLQDCAQQAGQETRFIYIEELGLGVGGVLTDLDDNVIRRAFKLYPLEWMMRDDNGPLLRKRREQWIEPLWKSILSNKGLLPLLWRFFPGHPNLLPAWFEGEKSLAAPGESSVRKPIYSREGGNVTIFDERQNVIDHADGDYADEPMIYQAFQPLPRFGDSYTLIGSWIIDDEASGMGIREDNTLITKDTSRFVPHYIAG”, “not soluble”; with “MLRLATPLRSGLLSSAIRRHSACCGGEHKMSEAELKMSKLLTEGIDGCTRVEVHDVSNGCGSMFDVVVEAAGFKGKSKVAQHKQVTSILREQIKDMHGLTIKTKAA”, “not soluble”.
The same measure for “MLRLWEELNRVENLFLELLDDPKKKDVLLYLICYCQLVRRDGEYEVELPKLINCAEKPYKYISGNWQDVLLELGVLYLKDKKGKVYTGKEILLVKNPEGFKVGILPDYREDFYKFYTKLLKYWSVLNSRRTLGSNTTPDYYTPLLVHTFNEKLFKEAQYFSEILAMRFPKEKNLFLSVKLVSEFYREYAKTGRVKADNLNDAINFLSDTPDVFYSVNVKKFKKDIKKFLENLNKGEFYYITIEFASENRGKKRSILSKLWNFIKSLGGKRWNSRSSGMDYYSFIEHLLKKHRRQMMRSLESSTPRLQGT”: “not soluble”; for “MLRNKAFVVRLYPNAAQAERINRTLGCARFVYNHFLARRIESYRQDGKGMIYAATDKALTLLKREEGTAWLAEVDKFALQQSLRDLERAYQNFFRTAKKSGKKVGFPKFKKKRTGEAYRTQFTNNNIEIGEGKLKLPKLGWVKTRGQRDMQGKILNVTVRRIHEGHYEASVLCEVEIPYLPAAPKFAAGVDVGIKDFAIVTDGKGEFEHHANPKYYRSSLRRLRKAQKTLSRRKKGSARYGRAKTTLARIHKRVANKRQDFIHKLTTSLVREYEITCTEHLKPDNMRKNRRLALSVSDAGWGEFIRQLEYKATWYGRLVSKISPYFPSSQICHDCGFKNPAVKNLAVREWTCPNCGETHDRDENAALNIRREGLVAAGMSDTQNAHGDCIRPTSVGSGLRSENHATSVVLEHHHHHH”: “soluble”.
With “MLRSAVSALYRASRSFSETVPRLSATPLGKQEPQLSLSYTCKVCNSREGPKTFAKSSYEKGVVIVTCSGCHNHHIIADNIGWFEDFKGKNIEDHLKTRGEAVKRRDTIKNENGIFEIQK”, the “soluble on expression in E. coli” value was “not soluble”.

The values above are taken from the DeepSol protein solubility set.
